Reference: US20210047420A1 (TUSK THERAPEUTICS, published 2021)
Read-outs that look alike come from different tables or passages of the source.

How the values were obtained:
[1] = biological target: T1, recombinant human CD25 his tagged (UniProt P01589 22-240); experiment: SPR (Biacore 2000)
T1 chain: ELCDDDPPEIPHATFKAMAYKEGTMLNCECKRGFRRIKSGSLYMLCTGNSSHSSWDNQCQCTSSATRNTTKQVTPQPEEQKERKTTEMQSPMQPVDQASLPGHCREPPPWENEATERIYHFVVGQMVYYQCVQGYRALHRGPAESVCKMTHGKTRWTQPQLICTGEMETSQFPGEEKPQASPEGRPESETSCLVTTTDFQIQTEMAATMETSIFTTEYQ

[2] = biological target: T1, recombinant human CD25 his tagged; experiment: SPR (Biacore 2000)
[3] = biological target: T1, recombinant human CD25 his tagged; experiment: SPR (Biacore 2000)
[4] = biological target: T1, recombinant human CD25 his tagged; experiment: SPR (Biacore 2000)
[5] = biological target: T2, recombinant human CD25 his tagged (human, UniProt P01589 22-240, limits assumed); experiment: Octet sequential binding, rhCD25 his tagged on Ni-NTA biosensors, first antibody
T2 construct: also called rhCD25 his tagged; rhCD25; not shown: his tag
T2 sequence: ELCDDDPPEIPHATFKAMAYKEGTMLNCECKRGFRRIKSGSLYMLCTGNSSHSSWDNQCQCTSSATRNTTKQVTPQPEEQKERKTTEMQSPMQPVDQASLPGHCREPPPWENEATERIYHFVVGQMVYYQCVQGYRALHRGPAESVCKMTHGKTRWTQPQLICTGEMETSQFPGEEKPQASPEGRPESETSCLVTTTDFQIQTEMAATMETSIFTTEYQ

B1: Antibody 7 (antibody, V domains shown)
VH: QVQLQESGPGLVKPSETLSLTCTVSGFSLTSYGIQWVRQPPGKGLEWIGVIWAGGSTNYNSALMSRVTISKDNSKSQFSLKLSSVTAADTAVYYCARAYGYDGSWLAYWGQGTLVTVSS
VL: DIQMTQSPSSLSASVGDRVTITCRASSSVSYMHWYQQKPGKAPKPLIFATSNLASGVPSRFSGSGSGTDYTLTISSLQPEDFATYYCQQWSSNPPTFGGGTKLEIK
Work on B1 yielded a Kd [1] of 2.1 nM.

B2: Antibody 4 (antibody, V domains shown)
VH: QVQLQESGPGLVKPSETLSLTCTVSGFSLTSYGIQWIRQPPGKGLEWIGVIWAGGSTNYNSALMSRVTISKDNSKNQFSLKLSSVTAADTAVYYCARAYGYDGSWLAYWGQGTLVTVSS
VL: QIQLTQSPSSLSASVGDRVTITCRASSSVSYMHWYQQKPGKSPKPLIFATSNLASGVPSRFSGSGSGTDYTLTISSLQPEDFATYYCQQWSSNPPTFGGGTKLEIK
B2 showed a Kd [2] of 1.1 nM.

B3: Antibody 5 (antibody, V domains shown)
VH: QVQLQESGPGLVKPSETLSLTCTVSGFSLTSYGIQWVRQPPGKGLEWIGVIWAGGSTNYNSALMSRVTISKDNSKSQFSLKLSSVTAADTAVYYCARAYGYDGSWLAYWGQGTLVTVSS
VL: EIVLTQSPATLSLSPGERATLSCRASSSVSYMHWYQQKPGQAPRPLIFATSNLASGIPARFSGSGSGTDFTLTISSLEPEDFAVYYCQQWSSNPPTFGGGTKLEIK
B3 was tested, and the Kd [2] was 2.6 nM.

B4: Antibody 11 (antibody, V domains shown)
VH: QVQLVESGGGVVQPGGSLRLSCAVSGFSLTSYGIQWVRQAPGKGLEWVSVIWAGGSTNYNSALMSRFTISKDNSKSTLYLQMNSLRAEDTAVYYCARAYGYDGSWLAYWGQGTLVTVSS
VL: DIQMTQSPSSLSASVGDRVTITCRASSSVSYMHWYQQKPGKAPKPLIFATSNLASGVPSRFSGSGSGTDYTLTISSLQPEDFATYYCQQWSSNPPTFGGGTKLEIK
Binder B4 has a Kd [3] of 10.2 nM.

B5: Antibody 3 (antibody, V domains shown)
VH: QVQLQESGPGLVKPSETLSLTCTVSGFSLTSYGIQWIRQPPGKGLEWIGVIWAGGSTNYNSALMSRVTISKDNSKNQFSLKLSSVTAADTAVYYCARAYGYDGSWLAYWGQGTLVTVSS
VL: DIQMTQSPSSLSASVGDRVTITCRASSSVSYMHWYQQKPGKAPKPLIFATSNLASGVPSRFSGSGSGTDYTLTISSLQPEDFATYYCQQWSSNPPTFGGGTKLEIK
For B5, the Kd [4] was 0.3 nM.

B6: Antibody 12 (antibody, V domains shown)
VH: QVQLVESGGGVVQPGGSLRLSCAVSGFSLTSYGIQWVRQAPGKGLEWVSVIWAGGSTNYNSALMSRFTISKDNSKSTLYLQMNSLRAEDTAVYYCARAYGYDGSWLAYWGQGTLVTVSS
VL: QIQLTQSPSSLSASVGDRVTITCRASSSVSYMHWYQQKPGKSPKPLIFATSNLASGVPSRFSGSGSGTDYTLTISSLQPEDFATYYCQQWSSNPPTFGGGTKLEIK
B6 was tested, and the Kd [3] was 6.9 nM.

B7: Antibody 2 (antibody, V domains shown)
VH: QVQLQESGPGLVKPSETLSLTCTVSGFSLTSYGIQWIRQPPGKGLEWIGVIWAGGSTNYNSALMSRVTISKDNSKNQFSLKLSSVTAADTAVYYCARAYGYDGSWLAYWGQGTLVTVSS
VL: QIVLTQSPATLSLSPGERATLSCRASSSVSYMHWYQQKPGQAPRPLIFATSNLASGIPARFSGSGSGTDYTLTISSLEPEDFAVYYCQQWSSNPPTFGGGTKLEIK
Binder B7 has a Kd [4] of 4.8 nM.

B8: Antibody 6 (antibody, V domains shown)
VH: QVQLQESGPGLVKPSETLSLTCTVSGFSLTSYGIQWVRQPPGKGLEWIGVIWAGGSTNYNSALMSRVTISKDNSKSQFSLKLSSVTAADTAVYYCARAYGYDGSWLAYWGQGTLVTVSS
VL: QIVLTQSPATLSLSPGERATLSCRASSSVSYMHWYQQKPGQAPRPLIFATSNLASGIPARFSGSGSGTDYTLTISSLEPEDFAVYYCQQWSSNPPTFGGGTKLEIK
B8 showed a Kd [2] of 2.9 nM.

B9: Antibody 8 (antibody, V domains shown)
VH: QVQLQESGPGLVKPSETLSLTCTVSGFSLTSYGIQWVRQPPGKGLEWIGVIWAGGSTNYNSALMSRVTISKDNSKSQFSLKLSSVTAADTAVYYCARAYGYDGSWLAYWGQGTLVTVSS
VL: QIQLTQSPSSLSASVGDRVTITCRASSSVSYMHWYQQKPGKSPKPLIFATSNLASGVPSRFSGSGSGTDYTLTISSLQPEDFATYYCQQWSSNPPTFGGGTKLEIK
In the case of B9, the Kd [1] is reported as 1.7 nM.

B10: Antibody 1 (antibody, V domains shown)
VH: QVQLQESGPGLVKPSETLSLTCTVSGFSLTSYGIQWIRQPPGKGLEWIGVIWAGGSTNYNSALMSRVTISKDNSKNQFSLKLSSVTAADTAVYYCARAYGYDGSWLAYWGQGTLVTVSS
VL: EIVLTQSPATLSLSPGERATLSCRASSSVSYMHWYQQKPGQAPRPLIFATSNLASGIPARFSGSGSGTDFTLTISSLEPEDFAVYYCQQWSSNPPTFGGGTKLEIK
With B10 the Kd [4] was 1.2 nM.

B11: Antibody 10 (antibody, human IgG1, V domains shown)
VH: QVQLVESGGGVVQPGGSLRLSCAVSGFSLTSYGIQWVRQAPGKGLEWVSVIWAGGSTNYNSALMSRFTISKDNSKSTLYLQMNSLRAEDTAVYYCARAYGYDGSWLAYWGQGTLVTVSS
VL: QIVLTQSPATLSLSPGERATLSCRASSSVSYMHWYQQKPGQAPRPLIFATSNLASGIPARFSGSGSGTDYTLTISSLEPEDFAVYYCQQWSSNPPTFGGGTKLEIK
notes: also called Ab10; Antibody 10-hIgG1
In the case of B11, the Kd [3] is reported as 7.6 nM and the binding result [5] is reported as “binds”.

B12: Antibody 9 (antibody, V domains shown)
VH: QVQLVESGGGVVQPGGSLRLSCAVSGFSLTSYGIQWVRQAPGKGLEWVSVIWAGGSTNYNSALMSRFTISKDNSKSTLYLQMNSLRAEDTAVYYCARAYGYDGSWLAYWGQGTLVTVSS
VL: EIVLTQSPATLSLSPGERATLSCRASSSVSYMHWYQQKPGQAPRPLIFATSNLASGIPARFSGSGSGTDFTLTISSLEPEDFAVYYCQQWSSNPPTFGGGTKLEIK
B12 gave a Kd [1] of 8.8 nM.
